Our source for the FRAP half-life values is paper PMC8943916.

In this assay the target is TIM (the TIM-EGFP-LacI bait of the FRAP experiment, not named). Nature of the assay: FRAP.

B1: TagRFP-PPP1R10-TND (domain or fragment)
chain: KLLNNWLTYSKTTNNIPLLQQILLTLQHLPLTVDHLKQNNTAKLVKQLSKSSEDEELRKLASVLVSDWMAVIRSQ
As to B1, the FRAP half-life was found to be 14.9 s.
